# Results as given in publication doi:10.1101/2025.09.16.676304, “FoxP3 forms a head-to-head dimer in vivo and stabilizes its multimerization on adjacent microsatellites”.
# B1: sFKHM (DNA2) (dsDNA)
# DNA 1: TAGGAAAATTTGCCGCGTCGAGTAAACATC
# DNA 2: GATGTTTACTCGACGCGGCAAATTTTCCTA
# B2: IR-FKHM (DNA1) (dsDNA)
# DNA 1: TAGGAAAATTTGTTTACTCGAGTAAACATC
# DNA 2: GATGTTTACTCGAGTAAACAAATTTTCCTA
# Tests used:
# Conditions in all cases: protein: recombinant;recombinant; tags: His6-NusA removed by HRV3C;His6-NusA removed by HRV3C; copies: 1;1
# [1] = biological target: T1, FoxP1 RBR-FKH;NFAT1 (Mus musculus;Mus musculus, UniProt P58462;Q60591 427-579;394-680, |); experiment: EMSA; NFAT 0.4 uM; FoxP1 monomer; EMSA: 20 mM HEPES pH 7.5, 150 mM NaCl, 1.5 mM MgCl2, 2 mM DTT, 4 C, 0.2 uM DNA; pull-down: 20 mM Tris-HCl pH 7.5, 100 mM NaCl, 1.5 mM MgCl2, RT, 0.4 uM protein, 0.1 uM DNA
# T1 sequence 1: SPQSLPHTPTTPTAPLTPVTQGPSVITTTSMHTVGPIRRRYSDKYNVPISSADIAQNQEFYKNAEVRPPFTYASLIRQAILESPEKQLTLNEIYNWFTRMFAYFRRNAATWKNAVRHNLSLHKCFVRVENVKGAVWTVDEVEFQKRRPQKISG
# T1 sequence 2: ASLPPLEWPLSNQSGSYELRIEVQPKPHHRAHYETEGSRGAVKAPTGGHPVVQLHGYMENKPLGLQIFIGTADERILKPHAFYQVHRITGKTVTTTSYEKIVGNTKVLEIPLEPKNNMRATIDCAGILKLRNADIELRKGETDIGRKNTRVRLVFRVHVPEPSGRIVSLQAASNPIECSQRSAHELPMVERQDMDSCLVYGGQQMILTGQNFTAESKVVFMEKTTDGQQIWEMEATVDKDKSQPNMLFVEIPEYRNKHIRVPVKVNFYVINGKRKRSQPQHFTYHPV
# [2] = biological target: T2, FoxP3 RBR-FKH;NFAT1 (Mus musculus;Mus musculus, UniProt Q99JB6;Q60591 284-423;394-680, |); experiment: EMSA; NFAT 0.4 uM; FoxP3 monomer; EMSA: 20 mM HEPES pH 7.5, 150 mM NaCl, 1.5 mM MgCl2, 2 mM DTT, 4 C, 0.2 uM DNA; pull-down: 20 mM Tris-HCl pH 7.5, 100 mM NaCl, 1.5 mM MgCl2, RT, 0.4 uM protein, 0.1 uM DNA
# T2 sequence 1: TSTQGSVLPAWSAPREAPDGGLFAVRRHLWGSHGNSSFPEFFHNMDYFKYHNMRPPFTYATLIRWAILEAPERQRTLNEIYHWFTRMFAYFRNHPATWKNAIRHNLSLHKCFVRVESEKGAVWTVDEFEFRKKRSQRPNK
# T2 sequence 2: T1 sequence 2
# [3] = biological target: T2, FoxP3 RBR-FKH;NFAT1; experiment: EMSA; NFAT 0.4 uM; FoxP3 dimer; EMSA: 20 mM HEPES pH 7.5, 150 mM NaCl, 1.5 mM MgCl2, 2 mM DTT, 4 C, 0.2 uM DNA; pull-down: 20 mM Tris-HCl pH 7.5, 100 mM NaCl, 1.5 mM MgCl2, RT, 0.4 uM protein, 0.1 uM DNA
Binder,binding result [1],binding result [2],binding result [3]
B1,binds,binds,–
B2,binds,–,binds
